According to US12559863B2, “Macrocyclic modulators of disease associated protein misfolding and aggregation” (RESQ BIOTECH, priority 2017, dated 2026):

How the values were obtained:
SOD1(A4V) [1] = target: T1, SOD1(A4V) (Homo sapiens, UniProt P00441, A5V); test: Dynamic light scattering of SOD1(A4V) with cyclic peptide; assay type: biochemical; details: room temperature, 60 d
T1 construct: polyHis; made in house; host or cells: E. coli Origami 2(DE3)
Description: (§1) SOD1 or mutants thereof were overexpressed from the appropriate pET-SOD1 or PASK-SOD1 vectors in E. coli Origami 2(DE3) cells in LB medium containing 50 μg/mL kanamycin (for pET-SOD1) or 100 μg/mL ampicillin (for pASK-SOD1), 200 μM CuCl2, and 200 μM ZnCl2 by the addition of 0.01 mM IPTG (for pET-SOD1) or 0.2 μg/mL anhydrotetracycline (aTc) (for pASK-SOD1), either at 37° C. for 2-3 h or at 18° C. for about 16 h. Origami 2(DE3) cells were utilized in order to provide an oxidizing cytoplasmic environment in order to promote correct formation of disulfide bonds, which are required for proper SOD1 folding and function. Under these conditions, bacterially produced SOD1 is produced in dimeric and enzymatically active form, while it simultaneously co-exists with misfolded, soluble and insoluble SOD1 oligomeric/aggregated species (FIG. 3C). Thus, the acquired protein is found in a state that resembles the conditions encountered in human cells under stressful or pathogenic conditions. The appearance of misfolded SOD1 oligomers/aggregates is enhanced with increasing incubation temperatures. […]
The sizes of the SOD1 particles were measured using a Zetasizer NanoZS90 (Malvern) instrument. […]

SOD1(A4V) [2] = target: T1, SOD1(A4V); test: Thioflavin T staining of SOD1(A4V); assay type: biochemical; details: 90 d at 25° C.
Description: as §1, with “conditions.” for “conditions. The appearance of misfolded SOD1 oligomers/aggregates is enhanced with increasing incubation temperatures.”
40 μM SOD1(A4V) solutions, aged for 90 d at 25° C., with or without the selected synthetic peptides, were diluted to 10 μM with PBS. […] The mixture was agitated adequately by pipetting and immediately thereafter, fluorescence was monitored with excitation at 440 nm (EM slit=2.5 nm, PMT Voltage 700 V, response 0.4 s) using a HITACHI F-2500 (Japan) spectrofluorometer.

SOD1(A4V) [3] = target: T1, SOD1(A4V); test: Filter retardation assay of SOD1(A4V); assay type: biochemical; details: 25 d at 37° C.
Description: as §1

SOD1(A4V) [4] = target: T1, SOD1(A4V); test: Differential scanning fluorimetry of SOD1(A4V) with SYPRO Orange; assay type: biochemical; details: 5:1 peptide to protein ratio
Description: FIGS. 4A-4F: (A) Chemical structure of the selected cyclic pentapeptide SOD1C5-4. (B) Circular dichroism spectra of SOD1(A4V) incubated with/without the selected cyclic pentapeptides SOD1C5-4, AβC5-34 or AβC5-116 at room temperature for 90 d (1:1 and 5:1 indicate cyclic peptide:SOD1(A4V) molar ratios). Representative spectra from n=2 independent experiments are presented. (C) Dynamic light scattering analysis of SOD1(A4V) incubated with/without the selected cyclic pentapeptides at room temperature for 60 d. Representative data from n=2 independent experiments are presented. (D) Thioflavin T (ThT) fluorescence of SOD1(A4V) incubated with/without the selected cyclic pentapeptides at room temperature for 90 d. Representative data from n=2 independent experiments are presented. (E) Filter retardation assay of SOD1(A4V) incubated with/without the selected cyclic pentapeptides at 37° C. for 25 d. Representative images from n=2 independent experiments performed in replica duplicates are presented. (F) Differential scanning fluorimetry analysis of isolated SOD1(A4V) in the presence or absence of the selected cyclic pentapeptide SOD1C5-4 (5:1 peptide to protein ratio) using the conformation-sensitive dye SYPRO Orange. Data corresponding to n=2 independent experiments each one performed in three replicates±s.e.m. are presented.

[5] = test system: HEK293 cells transiently expressing SOD1(A4V)-GFP; test: SOD1 aggregation and viability measurements in HEK293 cells; assay type: cell-based, human; details: 5 μM SOD1C5-4; compared to untreated cells
Description: Human embryonic kidney (HEK) 293 cells were transfected using a Nucleofector (Amaxa) following the manufacturer's protocol. 6 ug DNA (SOD1 or SOD1(A4V) cloned into the pEGFP-N3 plasmid vector) were used per 2×10^6 cells and 5 μM synthetic SOD1C5-4 was added, where appropriate, before plating. Transfected cells were sorted 18 h later on a FACSAria to isolate GFP-positive clones. […] Collected cells were plated onto a 24-well plate at a density of 50,000 cells/well. Microscopy analysis was performed under an inverted microscope on day 1 and day 5 in culture after sorting. Cell counts are the average number of viable GFP-fluorescing cells of two areas per triplicate of wells of 24-well plates (magnification 20×). Cell counts are presented as percentage of viability of SOD1-overxoressing cell. As aggregate-positive cells are counted the fluorescing inclusion body-positive cells. Again, two areas per triplicate of wells of 24-well plate are averaged (magnification 20×). Aggregate-positive cells are presented as percentage of the total viable GFP-fluorescing cells.

Aβ42 = target: T2, Aβ42 (Homo sapiens, UniProt P05067); test: Thioflavin T dye-binding assay of Aβ42; assay type: biochemical; details: 30-d aged CD solutions
T2 construct: one of the secondary products yields a 42-amino-acid-long peptide (Aβ42); purchased Eurogentec, Belgium; host or cells: chemical synthesis
Description: For Aβ ThT staining, 100 μL of the 30-d aged 50 μM CD solutions were diluted in PBS (10 mM, pH 7.33) to form a 25 μM Aβ solution with 200 μL final volume. 2.5 μL from a stock solution of ThT (Sigma-Aldrich, USA) in PBS (10 mM, pH 7.33) was added to the prepared Aβ solutions to achieve a final ThT concentration of 5 μM. The mixture was agitated adequately by pipetting and immediately thereafter, fluorescence was monitored with excitation at 440 nm (EM slit=2.5 nm, PMT Voltage 700 V, response 0.4 s) using a HITACHI F-2500 (Japan) spectrofluorometer.

T1 sequence (P00441 whole entry A5V): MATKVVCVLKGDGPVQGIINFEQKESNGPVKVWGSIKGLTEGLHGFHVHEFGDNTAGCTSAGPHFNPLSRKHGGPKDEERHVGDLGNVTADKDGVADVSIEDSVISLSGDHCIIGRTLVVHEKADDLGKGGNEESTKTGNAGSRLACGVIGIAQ

## cyclo-TWSVW (cyclic) [SOD1C5-4]
SOD1(A4V) [1]
  size of oligomeric/aggregated SOD1(A4V) species (DLS): markedly smaller sizes
SOD1(A4V) [2]
  formation of large, amyloid-like SOD1(A4V) aggregates by ThT staining: dramatically decreased
SOD1(A4V) [3]
  formation of large, amyloid-like SOD1(A4V) aggregates by filter retardation assay: dramatically decreased
SOD1(A4V) [4]
  propensity of SOD1(A4V) to expose hydrophobic surfaces (SYPRO Orange, heat-induced denaturation): decrease the propensity of SOD1(A4V) to expose hydrophobic surfaces
[5]
  fluorescence of HEK293 cells expressing SOD1(A4V)-GFP: higher fluorescence
  inclusions comprising aggregated SOD1(A4V)-GFP: fewer inclusions comprising aggregated SOD1(A4V)-GFP
  viability of HEK293 cells expressing SOD1(A4V)-GFP: higher viability
Aβ42
  extent of Aβ42 amyloid fibril formation (ThT): did not have any effect
